Data taken from article PMC3789969, “The Allosteric Role of the AAA^+ Domain of ChlD Protein from the Magnesium Chelatase of Synechocystis Species PCC 6803” (The Journal of Biological Chemistry, 2013).

What was measured:
Format in all cases: biochemical, Synechocystis sp. PCC 6803
[1] = substrate: Nc1ncnc2c1ncn2[C@@H]1O[C@H](COP(=O)(O)OP(=O)(O)OP(=O)(O)O)[C@@H](O)[C@H]1O; test: continuous fluorometric MgDIX formation assay, Hill fit; conditions: 10 mM free Mg2+, 8 μM DIX, pH 7.7, 34 °C
[2] = substrate: Nc1ncnc2c1ncn2[C@@H]1O[C@H](COP(=O)(O)OP(=O)(O)OP(=O)(O)O)[C@@H](O)[C@H]1O; test: continuous fluorometric MgDIX formation assay, Michaelis-Menten fit; conditions: 10 mM free Mg2+, 8 μM DIX, pH 7.7, 34 °C, I 0.1, non-cooperative
[3] = substrate: CC1=C(CCC(=O)O)c2cc3nc(cc4[nH]c(cc4C)cc4[nH]c(cc1n2)cc4C)C(C)=C3CCC(=O)O; test: as above; conditions: 5 mM ATP, Mg2+, pH 7.7, 34 °C, I 0.1

B1: magnesium chelatase (ChlI, His6-ChlD, His6-ChlH); nucleotide sites (Synechocystis sp. PCC 6803 substr. Kazusa) (protein)
chain 1: MTATLAAPSKTRRVVFPFTAIVGQDEMKLALLLNVIDPKIGGVMIMGDRGTGKSTTIRALADLLPEIEVVANDPFNSSPSDPEMMSEEVRIRVDSQEPLSIVKKKVTMVDLPLGATEDRVCGTIDIEKALSEGVKAFEPGLLAKANRGILYVDEVNLLDDHLVDVLLDSAAGGWNTVEREGISIRHPARFVLVGSGNPEEGELRPQLLDRFGMHAEIRTVREPELRVKIVEQRTEFDQNPHPFCDQYQTEQEALQAKIVNAQNLLPQVTIDYDYRVKVSEVCAELDVDGLRGDIVTNRAAKALAAFEGRTEVTVDDISRVIVLCLRHRLRKDPLESIDSGSKVEKVFKRVFGVVDEA
chain 2: not shown
notes: recombinant from E. coli; His6 tags on ChlD and ChlH, ChlI untagged; ATPase sites in ChlI, allosteric nucleotide site proposed in ChlD; with Magnesium-chelatase subunit ChlH
For B1, the K0.5 ([1]; I 0.1, Hill n 2.0 ± 0.2) was 0.43 ± 0.02 mM and the kcat ([1]; I 0.1, Hill n 2.0 ± 0.2) was 0.00675 ± 0.000233 s⁻¹.

B2: magnesium chelatase (ChlI, His6-ChlD, His6-ChlH); nucleotide sites (Synechocystis sp. PCC 6803 substr. Kazusa; P72772:R208A) (protein)
chain 1: MTATLAAPSKTRRVVFPFTAIVGQDEMKLALLLNVIDPKIGGVMIMGDRGTGKSTTIRALADLLPEIEVVANDPFNSSPSDPEMMSEEVRIRVDSQEPLSIVKKKVTMVDLPLGATEDRVCGTIDIEKALSEGVKAFEPGLLAKANRGILYVDEVNLLDDHLVDVLLDSAAGGWNTVEREGISIRHPARFVLVGSGNPEEGELRPQLLDRFGMHAEIRTVREPELRVKIVEQRTEFDQNPHPFCDQYQTEQEALQAKIVNAQNLLPQVTIDYDYRVKVSEVCAELDVDGLRGDIVTNRAAKALAAFEGRTEVTVDDISRVIVLCLRHRLRKDPLESIDSGSKVEKVFKRVFGVVDEA
chain 2: not shown
notes: as for B1
B2 showed a K0.5 ([1]; I 0.1, Hill n 2.0 ± 0.10) of 0.78 ± 0.02 mM and a kcat ([1]; I 0.1, Hill n 2.0 ± 0.10) of 0.00438 ± 8.3e-05 s⁻¹.

B3: magnesium chelatase (ChlI, His6-ChlD, His6-ChlH); nucleotide sites (Synechocystis sp. PCC 6803 substr. Kazusa; P72772:E152Q) (protein)
chain 1: MTATLAAPSKTRRVVFPFTAIVGQDEMKLALLLNVIDPKIGGVMIMGDRGTGKSTTIRALADLLPEIEVVANDPFNSSPSDPEMMSEEVRIRVDSQEPLSIVKKKVTMVDLPLGATEDRVCGTIDIEKALSEGVKAFEPGLLAKANRGILYVDEVNLLDDHLVDVLLDSAAGGWNTVEREGISIRHPARFVLVGSGNPEEGELRPQLLDRFGMHAEIRTVREPELRVKIVEQRTEFDQNPHPFCDQYQTEQEALQAKIVNAQNLLPQVTIDYDYRVKVSEVCAELDVDGLRGDIVTNRAAKALAAFEGRTEVTVDDISRVIVLCLRHRLRKDPLESIDSGSKVEKVFKRVFGVVDEA
chain 2: not shown
notes: as for B1
B3 showed a K0.5 ([1]; I 0.1, Hill n 1.8 ± 0.17) of 0.72 ± 0.04 mM and a kcat ([1]; I 0.1, Hill n 1.8 ± 0.17) of 0.0018 ± 6.7e-05 s⁻¹.

B4: magnesium chelatase (ChlI, His6-ChlD, His6-ChlH); nucleotide sites (Synechocystis sp. PCC 6803 substr. Kazusa; P72772:R289A) (protein)
chain 1: MTATLAAPSKTRRVVFPFTAIVGQDEMKLALLLNVIDPKIGGVMIMGDRGTGKSTTIRALADLLPEIEVVANDPFNSSPSDPEMMSEEVRIRVDSQEPLSIVKKKVTMVDLPLGATEDRVCGTIDIEKALSEGVKAFEPGLLAKANRGILYVDEVNLLDDHLVDVLLDSAAGGWNTVEREGISIRHPARFVLVGSGNPEEGELRPQLLDRFGMHAEIRTVREPELRVKIVEQRTEFDQNPHPFCDQYQTEQEALQAKIVNAQNLLPQVTIDYDYRVKVSEVCAELDVDGLRGDIVTNRAAKALAAFEGRTEVTVDDISRVIVLCLRHRLRKDPLESIDSGSKVEKVFKRVFGVVDEA
chain 2: not shown
notes: as for B1
B4 was tested, and the Km [2] was 1790 ± 320 µM and the kcat [2] was 0.0009 ± 8.3e-05 s⁻¹.

B5: magnesium chelatase (ChlI, His6-ChlD, His6-ChlH); porphyrin site (Synechocystis sp. PCC 6803 substr. Kazusa) (protein)
chain: MFTNVKSTIRRVDPEALNGRQLLKVVYVVLESQYQSALSAAVRNINRTNSSLAIQLTGYLIEELRDPENYANFKHDVSEANLFIASLIFIEDLADKVVEAVTPYRDNLDAAIVFPSMPQVMRLNKMGSFSMAQLGQSKSAIAQFMKKRKENSSGAGFQDAMLKLLRTLPTVLKYLPVEKAQDARNFMLSFQYWLGGSQENLENFLLMLTDKYVYPDLGLDKLVNYQEPVVYPDMGIWHPLSMQMFENVKDYLEWYNQRPDISEDLKDPLAPCIGLIMQRTHLVTGDDAHYVGMVQELEAMGARVICVFSGGLDFSKPVNEYFWDKSVNGVEPLPIVDAVVSLTGFALVGGPARQDHPRAIESLKKLNRPYMCALPLVFQTTEEWEASDLGLHPIQVALQIAIPELDGAIEPIILSGRDGSTGRAIALQDRLEAIAQRAMKWANLRKKPKLDKKVAITVFSFPPDKGNVGTAAYLDVFGSIYEVMKGLQGNGYDVQDLPGSAKELMEAVIHDAQAQYNSPELNIAHRMSVEQYERLTPYSVRLEENWGKPPGHLNSDGQNLLIYGKEFGNVFIGVQPTFGYEGDPMRLLFSRSASPHHGFAAYYTYLNHIWKADAVLHFGTHGSLEFMPGKQMGMSGECYPDNLIGTIPNLYYYAANNPSEATIAKRRGYASTISYLTPPAENAGLYKGLQELNELIGSYQTLKDSGRGIQIVNTIMDQARICNLDQDVNLPDINAEEMDQGQRDTIVGSVYRKLMEIESRLLPCGLHVIGQPPSAEEAIATLVNIASLDREDEGIWALPTLIAESIGRNMEEIYRNSDKGILADVELLQDITLATRAAVAALVQEQINADGRVSFVSKLNFFKIGKKAPWVKSLCDSGYPNVNEEKLKPLFEYLEFCLEQVCADNEFGGLLQALEGEYVLPGPGGDPIRNPNVLPTGKNIHALDPQSIPTLAAVQSAKVVVDRLLERQRAENGGNYPETIASVLWGTDNIKTYGESLAQIMWMVGAKPVPDALGRVNKIELVPLEELGRPRIDVVVNCSGVFRDLFINQMNLLDQAVKLAAEADEPLEMNFVRKHALEQAEEMGIGVREAATRIFSNASGSYSSNVNLAVENSSWEDESELQEMYLKRKSFAFNSDNPGMMDQNRDMFERALKTADATFQNLDSSEISLTDVSHYFDSDPTKLISTLRDDGKAPAAYIADTTTANAQVRTLSETVRLDARTKLLNPKWYEGMLSHGYEGVRELSKRLVNTMGWSATAGAVDNWVYEDANSTFIKDEEMCKRLMDLNPNSFRRMVSTLLEVNGRGYWETSDENLERLQELYQEVEDRIEGVE
notes: recombinant from E. coli; His6 tags on ChlD and ChlH; copies are assay ratio; with Magnesium-chelatase subunit ChlI; Magnesium-chelatase subunit ChlD
For B5, the Km [3] was 5.74 ± 0.77 µM and the kcat [3] was 0.0188 ± 0.001 s⁻¹.
